In publication PMC11376383, “Transcription factor ZmEREB97 regulates nitrate uptake in maize (Zea mays) roots”:

B1: Motif 1 probe (WT) (dsDNA)
DNA 1: CTCGGTCCACGCCGCCCGTCGGGGTTCG
DNA 2: CGAACCCCGACGGGCGGCGTGGACCGAG
B2: ZmNRT1.1B promoter probe (dsDNA)
DNA 1: AACAGGAGCACCCGCCGCCATGCTGCTCGCT
DNA 2: AGCGAGCAGCATGGCGGCGGGTGCTCCTGTT
B3: ZmNRT3.1A promoter probe (dsDNA)
DNA 1: CACCAGCACCGGCGCCGCCATTCGCCCCCTG
DNA 2: CAGGGGGCGAATGGCGGCGCCGGTGCTGGTG
B4: ZmNRT1.2 promoter probe (dsDNA)
DNA 1: CCACCGCACTGTCGCCGCCGTGCAGGCTCCA
DNA 2: TGGAGCCTGCACGGCGGCGACAGTGCGGTGG
B5: ZmNRT2.1 promoter probe (dsDNA)
DNA 1: CCAGCAGCAGCAGCCGACTAAACGGCATAGA
DNA 2: TCTATGCCGTTTAGTCGGCTGCTGCTGCTGG
B6: ZmNRT2.5 promoter probe (dsDNA)
DNA 1: GCCGCGCCCGCTGCCGCCTCCCAGCTCGCT
DNA 2: AGCGAGCTGGGAGGCGGCAGCGGGCGCGGC
B7: ZmNRT1.1A promoter probe (dsDNA)
DNA 1: ATATATAGCGGGGCGCCGCCCACCCGGCGGAGC
DNA 2: GCTCCGCCGGGTGGGCGGCGCCCCGCTATATAT

These binders were tested against T1, ZmEREB97 (Zea mays (B73_v3 gene model; cDNA …, UniProt C4J4G2 1-222) (assay: EMSA; EMSA/Gel Shift Binding Buffer (Beyotime; composition, salt and pH not stated), 25 C, 20 min, about 80 ng protein, 2.5 ng probe). Conditions: protein: recombinant; tags: 6xHis (pCold); label: 5'-biotin.
T1 sequence (C4J4G2 entry or part of it): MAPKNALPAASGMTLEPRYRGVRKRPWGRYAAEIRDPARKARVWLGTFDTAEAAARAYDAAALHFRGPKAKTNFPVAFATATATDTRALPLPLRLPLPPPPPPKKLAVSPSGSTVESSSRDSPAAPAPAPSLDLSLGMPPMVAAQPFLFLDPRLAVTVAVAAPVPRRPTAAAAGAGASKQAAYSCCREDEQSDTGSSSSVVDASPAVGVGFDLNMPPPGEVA

Binding result, binds:
B1

The binders below were run against T1, ZmEREB97 (assay: EMSA; partially competed by 50-fold cold probe; EMSA/Gel Shift Binding Buffer (Beyotime; composition, salt and pH not stated), 25 C, 20 min, about 80 ng protein, 2.5 ng probe). Conditions: protein: recombinant; tags: 6xHis (pCold); label: 5'-biotin.

Binding result, binds:
B2
B3
B4
B5
B6
B7
